Columns and labels:
Type in all cases: binding
[1] = Probe fluorescence ratio response to oleic acid relative to ADIFAB2; conditions: response relative to ADIFAB2
In short: (§1)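 Fluorescently labeled rat intestinal FABP variants were read at two emission wavelengths, near the unbound maximum (about 420 to 480 nm) and the FFA-bound maximum (about 495 to 580 nm). R = Fλ1/Fλ2 after subtracting probe-free intensity; ΔR = R+agent − R0, normalized to ADIFAB2 (rI-FABP-L72A).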

[2] = Probe fluorescence ratio response to linoleic acid relative to ADIFAB2; conditions: response relative to ADIFAB2
In short: as §1

[3] = Probe fluorescence ratio response to linolenic acid relative to ADIFAB2; conditions: response relative to ADIFAB2
In short: as §1

[4] = Probe fluorescence ratio response to arachidonic acid relative to ADIFAB2; conditions: arachidonic acid; response relative to ADIFAB2
In short: as §1

[5] = Probe fluorescence ratio response to palmitic acid relative to ADIFAB2; conditions: response relative to ADIFAB2
In short: as §1

B1: 14L 38M 72A 117F (protein, listed as Rattus norvegicus)
chain: AFDGTWKVDRNENLEKFMEKMGINVVKRKLGAHDNLKMTITQEGNKFTVKESSNFRNIDVVFELGVDFAYSAADGTELTGTWTMEGNKLVGKFKRVDNGKELIAVREISGNELIQTFTYEGVEAKRIFKKE
modifications: PEPTIDE (1)...(131) wild-type rat intestinal fatty acid binding protein
For B1, the “DR/DR OA” value [1] was 0.458, the “DR/DR LA” value [2] was 0.830 and the “DR/DR LNA” value [3] was 0.921. The “DR/DR AA” value [4] was 0.861 and the “DR/DR PA” value [5] was 0.472.

B2: 82F, 72A (protein, listed as Rattus norvegicus)
chain: AFDGTWKVDRNENYEKFMEKMGINVVKRKLGAHDNLKLTITQEGNKFTVKESSNFRNIDVVFELGVDFAYSAADGTELTGTFTMEGNKLVGKFKRVDNGKELIAVREISGNELIQTYTYEGVEAKRIFKKE
modifications: PEPTIDE (1)...(131) wild-type rat intestinal fatty acid binding protein
In the case of B2, the “DR/DR OA” value [1] is reported as 0.403, the “DR/DR LA” value [2] is reported as 0.422 and the “DR/DR LNA” value [3] is reported as 0.334. The “DR/DR AA” value [4] was 1.029 and the “DR/DR PA” value [5] was 0.223.

B3: 14L 72G 117I (protein, listed as Rattus norvegicus)
chain: AFDGTWKVDRNENLEKFMEKMGINVVKRKLGAHDNLKLTITQEGNKFTVKESSNFRNIDVVFELGVDFAYSGADGTELTGTWTMEGNKLVGKFKRVDNGKELIAVREISGNELIQTITYEGVEAKRIFKKE
modifications: PEPTIDE (1)...(131) wild-type rat intestinal fatty acid binding protein
With B3 the “DR/DR OA” value [1] was 0.395, the “DR/DR LA” value [2] was 0.764 and the “DR/DR LNA” value [3] was 0.812. The “DR/DR AA” value [4] was 0.787 and the “DR/DR PA” value [5] was 0.231.

B4: 14I 72G 117V (protein, listed as Rattus norvegicus)
chain: AFDGTWKVDRNENIEKFMEKMGINVVKRKLGAHDNLKLTITQEGNKFTVKESSNFRNIDVVFELGVDFAYSGADGTELTGTWTMEGNKLVGKFKRVDNGKELIAVREISGNELIQTVTYEGVEAKRIFKKE
modifications: PEPTIDE (1)...(131) wild-type rat intestinal fatty acid binding protein
In the case of B4, the “DR/DR OA” value [1] is reported as 0.337, the “DR/DR LA” value [2] is reported as 0.622 and the “DR/DR LNA” value [3] is reported as 0.547. The “DR/DR AA” value [4] was 0.928 and the “DR/DR PA” value [5] was 0.085.

B5: 21I, 72A (protein, listed as Rattus norvegicus)
chain: AFDGTWKVDRNENYEKFMEKIGINVVKRKLGAHDNLKLTITQEGNKFTVKESSNFRNIDVVFELGVDFAYSAADGTELTGTWTMEGNKLVGKFKRVDNGKELIAVREISGNELIQTYTYEGVEAKRIFKKE
modifications: PEPTIDE (1)...(131) wild-type rat intestinal fatty acid binding protein
For B5, the “DR/DR OA” value [1] was 0.310, the “DR/DR LA” value [2] was 0.365 and the “DR/DR LNA” value [3] was 0.412. The “DR/DR AA” value [4] was 0.531 and the “DR/DR PA” value [5] was 0.162.

B6: 78A, 72A (protein, listed as Rattus norvegicus)
chain: AFDGTWKVDRNENYEKFMEKMGINVVKRKLGAHDNLKLTITQEGNKFTVKESSNFRNIDVVFELGVDFAYSAADGTEATGTWTMEGNKLVGKFKRVDNGKELIAVREISGNELIQTYTYEGVEAKRIFKKE
modifications: PEPTIDE (1)...(131) wild-type rat intestinal fatty acid binding protein
For B6, the “DR/DR OA” value [1] was 0.350, the “DR/DR LA” value [2] was 0.372 and the “DR/DR LNA” value [3] was 0.429. For the same molecule, the “DR/DR AA” value [4] was 0.433 and the “DR/DR PA” value [5] was 0.190.

B7: 106M, 72A (protein, listed as Rattus norvegicus)
chain: AFDGTWKVDRNENYEKFMEKMGINVVKRKLGAHDNLKLTITQEGNKFTVKESSNFRNIDVVFELGVDFAYSAADGTELTGTWTMEGNKLVGKFKRVDNGKELIAVMEISGNELIQTYTYEGVEAKRIFKKE
modifications: PEPTIDE (1)...(131) wild-type rat intestinal fatty acid binding protein
With B7 the “DR/DR OA” value [1] was 0.510, the “DR/DR LA” value [2] was 0.485 and the “DR/DR LNA” value [3] was 0.490. The “DR/DR AA” value [4] was 0.554 and the “DR/DR PA” value [5] was 0.183.

B8: 106D, 72A (protein, listed as Rattus norvegicus)
chain: AFDGTWKVDRNENYEKFMEKMGINVVKRKLGAHDNLKLTITQEGNKFTVKESSNFRNIDVVFELGVDFAYSAADGTELTGTWTMEGNKLVGKFKRVDNGKELIAVDEISGNELIQTYTYEGVEAKRIFKKE
modifications: PEPTIDE (1)...(131) wild-type rat intestinal fatty acid binding protein
In the case of B8, the “DR/DR OA” value [1] is reported as 0.423, the “DR/DR LA” value [2] is reported as 0.584 and the “DR/DR LNA” value [3] is reported as 0.591. The “DR/DR AA” value [4] was 0.502 and the “DR/DR PA” value [5] was 0.147.

B9: 49N, 72A (protein, listed as Rattus norvegicus)
chain: AFDGTWKVDRNENYEKFMEKMGINVVKRKLGAHDNLKLTITQEGNKFTNKESSNFRNIDVVFELGVDFAYSAADGTELTGTWTMEGNKLVGKFKRVDNGKELIAVREISGNELIQTYTYEGVEAKRIFKKE
modifications: PEPTIDE (1)...(131) wild-type rat intestinal fatty acid binding protein
With B9 the “DR/DR OA” value [1] was 1.108, the “DR/DR LA” value [2] was 1.099 and the “DR/DR LNA” value [3] was 1.181. For the same molecule, the “DR/DR AA” value [4] was 1.255 and the “DR/DR PA” value [5] was 0.740.

B10: 49D, 72A (protein, listed as Rattus norvegicus)
chain: AFDGTWKVDRNENYEKFMEKMGINVVKRKLGAHDNLKLTITQEGNKFTDKESSNFRNIDVVFELGVDFAYSAADGTELTGTWTMEGNKLVGKFKRVDNGKELIAVREISGNELIQTYTYEGVEAKRIFKKE
modifications: PEPTIDE (1)...(131) wild-type rat intestinal fatty acid binding protein
For B10, the “DR/DR OA” value [1] was 0.316, the “DR/DR LA” value [2] was 0.324 and the “DR/DR LNA” value [3] was 0.296. The “DR/DR AA” value [4] was 0.308 and the “DR/DR PA” value [5] was 0.161.

B11: 78I, 72A (protein, listed as Rattus norvegicus)
chain: AFDGTWKVDRNENYEKFMEKMGINVVKRKLGAHDNLKLTITQEGNKFTVKESSNFRNIDVVFELGVDFAYSAADGTEITGTWTMEGNKLVGKFKRVDNGKELIAVREISGNELIQTYTYEGVEAKRIFKKE
modifications: PEPTIDE (1)...(131) wild-type rat intestinal fatty acid binding protein
With B11 the “DR/DR OA” value [1] was 0.923, the “DR/DR LA” value [2] was 0.874 and the “DR/DR LNA” value [3] was 0.958. The “DR/DR AA” value [4] was 1.138 and the “DR/DR PA” value [5] was 0.748.

B12: 104Y, 72A (protein, listed as Rattus norvegicus)
chain: AFDGTWKVDRNENYEKFMEKMGINVVKRKLGAHDNLKLTITQEGNKFTVKESSNFRNIDVVFELGVDFAYSAADGTELTGTWTMEGNKLVGKFKRVDNGKELIYVREISGNELIQTYTYEGVEAKRIFKKE
modifications: PEPTIDE (1)...(131) wild-type rat intestinal fatty acid binding protein
For B12, the “DR/DR OA” value [1] was 0.236, the “DR/DR LA” value [2] was 0.265 and the “DR/DR LNA” value [3] was 0.278. The “DR/DR AA” value [4] was 0.364 and the “DR/DR PA” value [5] was 0.140.

B13: 55Y, 72A (protein, listed as Rattus norvegicus)
chain: AFDGTWKVDRNENYEKFMEKMGINVVKRKLGAHDNLKLTITQEGNKFTVKESSNYRNIDVVFELGVDFAYSAADGTELTGTWTMEGNKLVGKFKRVDNGKELIAVREISGNELIQTYTYEGVEAKRIFKKE
modifications: PEPTIDE (1)...(131) wild-type rat intestinal fatty acid binding protein
With B13 the “DR/DR OA” value [1] was 0.329, the “DR/DR LA” value [2] was 0.324 and the “DR/DR LNA” value [3] was 0.335. For the same molecule, the “DR/DR AA” value [4] was 0.471 and the “DR/DR PA” value [5] was 0.249.

B14: 11W, 72A (protein, listed as Rattus norvegicus)
chain: AFDGTWKVDRWENYEKFMEKMGINVVKRKLGAHDNLKLTITQEGNKFTVKESSNFRNIDVVFELGVDFAYSAADGTELTGTWTMEGNKLVGKFKRVDNGKELIAVREISGNELIQTYTYEGVEAKRIFKKE
modifications: PEPTIDE (1)...(131) wild-type rat intestinal fatty acid binding protein
For B14, the “DR/DR OA” value [1] was 0.227, the “DR/DR LA” value [2] was 0.344 and the “DR/DR LNA” value [3] was 0.357. The “DR/DR AA” value [4] was 0.430 and the “DR/DR PA” value [5] was 0.199.

B15: 23L, 72A (protein, listed as Rattus norvegicus)
chain: AFDGTWKVDRNENYEKFMEKMGLNVVKRKLGAHDNLKLTITQEGNKFTVKESSNFRNIDVVFELGVDFAYSAADGTELTGTWTMEGNKLVGKFKRVDNGKELIAVREISGNELIQTYTYEGVEAKRIFKKE
modifications: PEPTIDE (1)...(131) wild-type rat intestinal fatty acid binding protein
With B15 the “DR/DR OA” value [1] was 1.057, the “DR/DR LA” value [2] was 1.041 and the “DR/DR LNA” value [3] was 1.025. For the same molecule, the “DR/DR AA” value [4] was 1.174 and the “DR/DR PA” value [5] was 0.928.

B16: 78Y, 72A (protein, listed as Rattus norvegicus)
chain: AFDGTWKVDRNENYEKFMEKMGINVVKRKLGAHDNLKLTITQEGNKFTVKESSNFRNIDVVFELGVDFAYSAADGTEYTGTWTMEGNKLVGKFKRVDNGKELIAVREISGNELIQTYTYEGVEAKRIFKKE
modifications: PEPTIDE (1)...(131) wild-type rat intestinal fatty acid binding protein
With B16 the “DR/DR OA” value [1] was 0.845, the “DR/DR LA” value [2] was 0.908 and the “DR/DR LNA” value [3] was 0.871. The “DR/DR AA” value [4] was 1.172 and the “DR/DR PA” value [5] was 0.520.

B17: 14L 72G 117V (protein, listed as Rattus norvegicus)
chain: AFDGTWKVDRNENLEKFMEKMGINVVKRKLGAHDNLKLTITQEGNKFTVKESSNFRNIDVVFELGVDFAYSGADGTELTGTWTMEGNKLVGKFKRVDNGKELIAVREISGNELIQTVTYEGVEAKRIFKKE
modifications: PEPTIDE (1)...(131) wild-type rat intestinal fatty acid binding protein
With B17 the “DR/DR OA” value [1] was 0.297, the “DR/DR LA” value [2] was 0.548 and the “DR/DR LNA” value [3] was 0.513. For the same molecule, the “DR/DR AA” value [4] was 0.873 and the “DR/DR PA” value [5] was 0.055.

— US20060257938A1, “Method of screening for drugs that block ligand binding to a lipid binding protein” (priority 2005, published 2006)
